Experimental data reported in patent US20140294898A1.
Positions of bridges follow the written chain, without caps; N, C: chain ends. Non-standard residues stand in square brackets, D forms with d. Phe(F5) = N[C@@H](Cc1c(F)c(F)c(F)c(F)c1F)C(=O)O; NMeF = CN[C@@H](Cc1ccccc1)C(=O)O; NMeNle = CCCC[C@H](NC)C(=O)O; Sar = CNCC(=O)O

Legend:
[1] = target: hPDL1(19-239)-TVMV-His (human) (UniProt Q9NZQ7); assay: HTRF competition of PD-1-Ig binding to PD-L1-His; cluster 3 = IC50 0.03045 to >10 uM or not done
Sequence of hPDL1(19-239)-TVMV-His (human) (Q9NZQ7 other isoform, or with tags, fused parts or gaps limits assumed): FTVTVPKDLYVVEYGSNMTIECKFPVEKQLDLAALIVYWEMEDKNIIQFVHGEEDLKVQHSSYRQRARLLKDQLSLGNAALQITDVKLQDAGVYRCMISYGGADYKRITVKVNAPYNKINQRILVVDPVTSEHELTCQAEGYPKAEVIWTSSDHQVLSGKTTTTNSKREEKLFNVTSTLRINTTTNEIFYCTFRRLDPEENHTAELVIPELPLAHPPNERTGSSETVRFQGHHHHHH

[2] = target: human PD-L1 (human) (UniProt Q9NZQ7); assay: cell binding assay (CBA), PE-labeled PD-1-Ig on cells over-expressing human PD-L1; cluster 3 = IC50 0.07431 to >10 uM or not done
Sequence of human PD-L1 (human) (Q9NZQ7 19-290): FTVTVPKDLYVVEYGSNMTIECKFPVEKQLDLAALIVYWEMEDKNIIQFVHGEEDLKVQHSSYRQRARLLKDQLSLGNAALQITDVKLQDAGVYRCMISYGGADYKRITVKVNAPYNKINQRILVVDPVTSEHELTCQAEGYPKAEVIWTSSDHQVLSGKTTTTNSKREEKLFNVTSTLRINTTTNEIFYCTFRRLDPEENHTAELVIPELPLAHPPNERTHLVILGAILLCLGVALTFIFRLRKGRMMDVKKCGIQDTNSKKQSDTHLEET

B1: Example 3078 (peptide)
peptide: {CH2CO}-[Phe(F5)][NMeF][NMeNle][Sar]DV[NMeF]Y[Sar]WYLCG-NH2
modifications: thioether N-13
SMILES: CCCC[C@H]1C(=O)N(C)CC(=O)N[C@@H](CC(=O)O)C(=O)N[C@@H](C(C)C)C(=O)N(C)[C@@H](Cc2ccccc2)C(=O)N[C@@H](Cc2ccc(O)cc2)C(=O)N(C)CC(=O)N[C@@H](Cc2c[nH]c3ccccc23)C(=O)N[C@@H](Cc2ccc(O)cc2)C(=O)N[C@@H](CC(C)C)C(=O)N[C@H](C(=O)NCC(N)=O)CSCC(=O)N[C@@H](Cc2c(F)c(F)c(F)c(F)c2F)C(=O)N(C)[C@@H](Cc2ccccc2)C(=O)N1C
HTRF IC50 cluster [1]: 3 cluster | CBA IC50 cluster [2]: 3 cluster
